# Reference: the DeepSol protein solubility set
# Assay: soluble on expression in E. coli; label from the status in PepcDB or PDB records
row,Sequence,soluble on expression in E. coli
1,MNTGFANPSAKPDDPTDPRARRDHGGGLDGAMRRYGGQRADWIDLSTGINPLPYPVGTLLPEDWTALPDHGAFGELIRAARAFWHLPEAAAVLPAPGASALIARIPALADPARVRITQPTYNEHAAAFTAHGWQVVADGPAEARVIVHPNNPDGRIWSEAEAEGALCVIDESFGDVAPETSLAHLAARPGTVVLKSFGKFWGLAGLRLGFAVALPETIARLNDLTGPWAVSGPALRIGTRALSDTAWAEETRIRLAQEAARLDTLMSAGGVQVLGGTDLFRLYQVDDAAAWQDRLARARIWSRIFPYSDRFLRLGLPPAEGWDRLESAL,not soluble
2,MCFIMSKRNTQLRRHTIVKLVNEQGEVSVEALSSQFETSEVTIRKDLASLEKNGQLLRRYGGAIALPKEVMHDELNEKVSVRKISLAKAAAKLIRDHNRIVIDSGSTTAALIQQLNDKRGLVVMTNSLHVANALNELENEPTLLMTGGTWDTHSESFQGKVAESVLRSYDFDQLFIGADGIDLDRGTTTFNELVGLSKVMAEVSREVIVMIESDKVGRKIPNLELSWDNIDVLVTDHELSDEFAKQIESHQVRVIRATVK,not soluble
3,MADIVQLKENGVVKYMKTHADAIDGVEGKLVKAVGNETVLGTKNFQDGIQIGGKSVSVNAKPTYEVVKDYWDGTGAYLTESQSVTISNSSNVDEIVLIFSRYNDNGGGIVHSIPVTPNITKLKYELPAVAWVGSASTDPTIAYKKISISKSGTSLVITGDTANTLNEANKKIVFREIGVMRRK,not soluble
4,MAVEDEGLRVFQSVKIKIGEAKNLPSYPGPSKMRDCYCTVNLDQEEVFRTKIVEKSLCPFYGEDFYCEIPRSFRHLSFYIFDRDVFRRDSIIGKVAIQKEDLQKYHNRDTWFQLQHVDADSEVQGKVHLELRLSEVITDTGVVCHKLATRIVECQGLPIVNGQCDPYATVTLAGPFRSEAKKTKVKRKTNNPQFDEVFYFEVTRPCSYSKKSHFDFEEEDVDKLEIRVDLWNASNLKFGDEFLGELRIPLKVLRQSSSYEAWYFLQPRDNGSKSLKPDDLGSLRLNVVYTEDHVFSSDYYSPLRDLLLKSADVEPVSASAAHILGEVCREKQEAAVPLVRLFLHYGRVVPFISAIASAEVKRTQDPNTIFRGNSLASKCIDETMKLAGMHYLHVTLKPAIEEICQSHKPCEIDPVKLKDGENLENNMENLRQYVDRVFHAITESGVSCPTVMCDIFFSLREAAAKRFQDDPDVRYTAVSSFIFLRFFAPAILSPNLFQLTPHHTDPQTSRTLTLISKTVQTLGSLSKSKSASFKESYMATFYEFFNEQKYADAVKNFLDLISSSGRRDPKSVEQPIVLKEGFMIKRAQGRKRFGMKNFKKRWFRLTNHEFTYHKSKGDQPLYSIPIENILAVEKLEEESFKMKNMFQVIQPERALYIQANNCVEAKDWIDILTKVSQCNQKRLTVYHPSAYLSGHWLCCRAPSDSAPGCSPCTGGLPANIQLDIDGDRETERIYSLFNLYMSKLEKMQEACGSKSVYDGPEQEEYSTFVIDDPQETYKTLKQVIAGVGALEQEHAQYKRDKFKKTKYGSQEHPIGDKSFQNYIRQQSETSTHSI,soluble
5,MSCGSNRGNEMKDKYDVLVIGAGPAGSIAAKTAAEKGLDVLLIEKRQEIGDPVRCAEGVNKECLKKHVEIDKRWICADLKGSCIFSPDGTKIEMAEEISGGEVGYVLERKVFDRALAEHAATAGAEVRVKTRATGLIIEDDFVKGARLMHLGKEYEVRASIVIGADGVESKVGRWAGIDTALKPVDVETCAQYLIAGADINQEYCEFYIGNEMAPGGYVWVFPKGGGKANVGIGILGSKMGKFKPRPVDYLNDFVQKKFPDARIVEMVFGGVPVSGSIEKTSVNGLMLVGDAARQSDPITGGGILNAMDAGKLAGEAAYEAISAGDVSVVKLEEVYEKKWRDTVGHDIDMSLIVKNCFINLTDDDLDSLAHSLKDVKFERMSLLDLLQALFKANKKLLWDLRVLFKDAAKEVIKNKTLEHHHHHH,soluble
6,MSLATPDRLTIVNQYVDNVLTKAGDHYHGQSPTPLLADGVDPRTGKQMEWIFPDGRHAVLSNFSAQQNLMRVLVGLSNLSGNPSYKQRAEAIVKYHFQHYQDESGLLIWGGHRFVDLKTLQPEGPSEKEMVHELKNAYPYYDLMFSVDKDATARFIRGFWNAHVYDWKIMETSRHGKYGQKIGALWQSPFEQQPPFFATKGLSFLNAGNDLIYSASLLYKYNKEDGALVWAKRLAQQYVLPRDKATGLGVYQFTQALKRDETTDDADTHSKYGDRAQRQFGPEFGPTALEGNMMLKGRTSTIYSENALMQLQLGKDLGAEGKELLTWTTDGLKAFAKYAYNESDNTFRPMLANGKDLSNYVLPRDGYYGKKGTVIKPYPADNSFLLSYARAYTVLPDAELWRVARGIARAQGLGELGSAPGKDVKVDLATKNNDPYALFALLDLYQASKVKDYLSLAEKVGDNIISTRYQNGFFMAEPNRQYADVDTIEPYALLALEAAVRNQPQSVAPFLNGAGFTEGGYRMEDGSTRVSTRDNEIFLLNVGETLKPNNKKEGHHHHHH,soluble
7,MSILDLTKISKDSTKLQNFVKFERVKTGGLDVYMSEYSWNTKEAGTMSICDVSENTSLDYRSNHQQLLKSWISSTEKIAQLFPTTLRTFQVTPPMIAAILDLETAIPKTCDVLIIQNYVPAEMDRYQESVDQFMEKCHIREGVVLHHEVYTNSPKMFQLDYLSVTHSDWMVPSDLEEMENKIVYLDKSDFYDSDMNQFLRELKSGSSHSRLQILSIQGNSWQNYWDPSDVLEGLNAELWNQTERNQHYFLNAEHRKNFKKIADHFYPDQEDGFGAELEHGVDLSEAFDFLKNDGTRVSVRFDELILQVFVWPNEKPSRKRKAQEQGSIAKRFC,not soluble
8,MDKADLYEKNQSRKDILNYYREEDKDFEQYLNFRENRKMLQQAFESGTLIRKQNYRARIHERMVEQPVTEKKELLRSR,not soluble
9,MESPNMRKRLIEMESSLEVKKTATTVKQEPLETSSPLLASMISTAPNPPPTSPHALNYLTLLAAFRQFLHGYIQAGGDENLANTLGNYVAALPMPPNSLNPIGPLNAPKSPFKQQQKFHSIIKAVKREPVSEPAQNAGSGDSSVTLSSALGEDAVPQNRGSCTSMKPVPRFVMLPVVAAQSASPSASGPTSEIQQLREAAFGRYKNVLCVICNEWICSRNRKNHIEAHLNYRPYKCSACSYARRREIFVDQHIRTQHKGVEGVVMLSDVDLHVAMEVDRLAEECVTRTRKIIDTMQEKKDGDFGENKDFDEKALQMMLAEEAENKVVVIESVSQVRPKVANYHRRQRTKVLKKIYDTDVAKQTELKIVKDEEGGVPTMSIKLEEGFEINLEDLMKMVGAGSSITDSNEPGPSEIKKELAEV,not soluble
10,MSLTPVLDKIDSDVSAATDRLLELLRIPSISTDPAYKADCDAAADWLVKDLNSIGIKAEKRETPGHPMVVGHVGEENTKGPHLLFYGHYDVQPVDPLNLWNTPPFEPQLEETPNGTVIRGRGASDDKGQLMTFVEACRAWQAVHGTLPCRITFFFEGEEESGSPSLIPFLEAAKEELSADIALICDTSMVARGVPSVASQLRGMMKDEFTLIGPKIDLHSGHYGGPGLNPLREISHIIASFHDPDTGAVAVEGFYEGVPEVPADILRQWEGCGFDEKDYLSNAGYTEAHGEKKYSTLEQQWARPTLEINGLWGGYQGAGTKTVIPSEAHCKITCRLVGDMDPADLRQKIRKHVEDRLPTDCTVKWDLDLDGAPAYVIDTTRPEFEAARGALTEEWNREAVFSGMGGSIPVAGYFKSILGMDAMLIGFANEDDAIHSPNEKYDLESFHKGIRSWARVLDALSKA,soluble
11,PSPQSLDGKNLNFDQQLVIFESENCEFCAQFDRDILAHWQADIPMVATKNTNPPADWTLDKPLFAAPTIVLFREGKEVVRYTGYTGEKENFWQWL,not soluble
12,MNVASRVVVNADRVKGTINRNIYGHFSEHLGRCIYEGLWVGEDSPIPNTNGIRNDVLEALKQMKIPVLRWPGGCFADEYHWKDGVGPREKRKRMVNTHWGGVIENNHFGTHEFMMLCELLGCEPYISGNVGSGTVQEMSEWVEYITFDGESPMANWRRENGREKPWRIKYWGVGNQNWGCGGNMRAEYYADLYRQFQTYLRNYGDNKLHKIACGANTADYHWTEVLMKQAAPFMHGLSLHYYTVPGPWEKKGPATGFTTDEWWVTLKKALFMDRLVTKHSAIMDVYDPDKRIDLIVDEWGTWYDVEPGTNPGFLYQQNSIRDALVAGATLHIFHRHCDRVRMANIAQLVNVLQSVILTEGERMLLTPTYHVFNMFKVHQDAELLDTWESVERTGPEGELPKVSVSASRAADGKIHISLCNLDFETGASVDIELRGLNGGVSATGTTLTSGRIDGHNTFDEPERVKPAPFRDFKLEGGHLNASLPPMSVTVLELTAG,soluble
13,MGSDKIHHHHHHMNLVMEKTFEQYEKLFSMEEQKREDVFRYTMMRPFEKMWTAIQVPLKAKEPNGYDVIMAAKMLGYLDVRDAESGQKALQILKESHVSETAESALRQCIFFAEREQLRVNAKEIKFGLYIADPNKLQLQKGYCGFGGIPGFIHVWINPNSYNLPRIPSIIAHEFHHNVRFSYIDFHHGSVSVGDYLVIEGLAESFARELFGTERLGPWVTRFDHEDLQYSIDVINEVLDVKGFSEVSRYMFGDPIANDQGFKPAGLSAFAGYAVGYHAVQSFMNQHHITISEATRLDAKTIISQCGLFLHEKSVTYSGAF,not soluble
14,MGSDKIHHHHHHMKTAEPQTIDDLERWIKSRGITEVECLVPDLSGIPRGKILPARKFLSCLRDRGLRLPESVFTQTVTGEYPEDDPVDIADSDVYLRPDPRTIRVVPWYEEPTAQVINDCFHRDRSEVHCAPRQVLRNILALYEKQGWKPVVAPELEFYLVRINADPDYPLEPPIGRSGRAETGRQAYGIDAVNEFDPLFEDIYDYAEEQNLDLDTLHHESGSAQMEINFLHGDPMELADQVFLFKRTVRQAALRHNVYATFMAKPLAGQPGSAMHLHQSITDAESGRNILVKKNGEDSDLFRWHIGGLQKYLPHCMLMLAPNVNSYRRFLPDQSAPINMHWGHDNRTVSLRVPYADASARRVENRLSGADANPYLAIAASLACGYLGMIEKIEPTAPITGSAYTRAHNLPRHLPDAIERFERARPLHELLNADFVRVYASVKWAEWDAYQHVISSWEREYLLLNV,not soluble
15,MGSSHHHHHHGKTIFVIVPTNEEQVAFLEALAKQDELNFDWQNPPTEPGQPVVILIPSDMVEWFLEMLKAKGIPFTVYVEEGGSENLYFQGGGGGGVNPVVEFVDVGCAFGGMLFSLAAVFPATCMMGLEIRPKVVSFAQEKALALRQENAASLTQHYRNVWFEQMNVMKFGSNCFTKGQLSRLFFCYPDPHWKRKNIRRRIISPGLVQEYAYWLRHGGLVYTVSDVAELEEWMVQCLDDSPLFRRLAEAELCTPEHKQVLEIVTGASEDAQRTARKGLQKHFAVHMRI,not soluble
16,MLKGQRTWVFANKPAIIATAAVGGPFEANGRLAEDFDLLHEDLWLGEESYEKAHRVLMEEAAFQAMEKAGLEKEKVQFLIAGDLINQMTPTSFAARTLGMPYLGVFGACSTSMEGLALSAFITNYGGADYILTGASSHNAAVEKQFRYPTEYGGQKPPTAQWTVTGAGVAIVSPKGDGPRVTAATIGRVVDMGLADPFNMGGAMAPAAVDTIEAHLRDMQIDASYYDLIVTGDLGRIGRQVSLDLLRQHGIDIDEECYQDCGLLIYRDGQPVLSGASGAACSAVVVYGHLIKRMRRGELKRILAVATGALLSPLSFQQNETIPCIAHAVAIEYGGEA,not soluble
